Columns and labels:
[1] = biological target: TGIF1-HD (160-250) (Homo sapiens, UniProt Q15583 160-250); assay: ITC
[2] = biological target: TGIF1-HD (171-250) (Homo sapiens, UniProt Q15583 171-250); assay: ITC
[3] = biological target: TGIF1-HD R167A/R168A (Homo sapiens, UniProt Q15583 161-250, R167A;R168A); assay: X-ray 3.25 A
Sequence of TGIF1-HD R167A/R168A (Q15583 161-250 R167A/R168A): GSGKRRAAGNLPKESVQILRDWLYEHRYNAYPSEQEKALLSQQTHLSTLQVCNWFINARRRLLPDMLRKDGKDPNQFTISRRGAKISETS

Sequence of TGIF1-HD (171-250) (Q15583 171-250): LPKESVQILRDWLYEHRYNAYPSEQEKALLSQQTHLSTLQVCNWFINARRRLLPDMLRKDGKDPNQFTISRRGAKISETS
Sequence of TGIF1-HD (160-250) (Q15583 160-250): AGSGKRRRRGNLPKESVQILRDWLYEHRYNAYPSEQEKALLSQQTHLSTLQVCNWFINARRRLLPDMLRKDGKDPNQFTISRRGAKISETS

B1: canonical TGACA palindrome 16mer (dsDNA)
DNA 1: ATTGACAGCTGTCAAT
DNA 2: ATTGACAGCTGTCAAT
- Kd [1]: 170 ± 20 nM
- Kd [2]: 728.1 ± 3 nM
- binding result [3]: binds
